Experimental data published in PMC3508374 (Molecular microbiology, 2012).

B1: Bacillus subtilis Fur (ferric uptake regulator), wild type (natural protein, UniProt P54574 1-149, looked up)
chain: MENRIDRIKKQLHSSSYKLTPQREATVRVLLENEEDHLSAEDVYLLVKEKSPEIGLATVYRTLELLTELKVVDKINFGDGVSRYDLRKEGAAHFHHHLVCMECGAVDEIEEDLLEDVEEIIERDWKFKIKDHRLTFHGICHRCNGKETE
B2: Bacillus subtilis Fur H95A (site 2 mutant) (natural protein, UniProt P54574 1-149, looked up)
chain: MENRIDRIKKQLHSSSYKLTPQREATVRVLLENEEDHLSAEDVYLLVKEKSPEIGLATVYRTLELLTELKVVDKINFGDGVSRYDLRKEGAAHFAHHLVCMECGAVDEIEEDLLEDVEEIIERDWKFKIKDHRLTFHGICHRCNGKETE
B3: Bacillus subtilis Fur H96A (site 3 mutant) (natural protein, UniProt P54574 1-149, looked up)
chain: MENRIDRIKKQLHSSSYKLTPQREATVRVLLENEEDHLSAEDVYLLVKEKSPEIGLATVYRTLELLTELKVVDKINFGDGVSRYDLRKEGAAHFHAHLVCMECGAVDEIEEDLLEDVEEIIERDWKFKIKDHRLTFHGICHRCNGKETE
B4: Bacillus subtilis Fur H37A (site 2 mutant) (natural protein, UniProt P54574 1-149, looked up)
chain: MENRIDRIKKQLHSSSYKLTPQREATVRVLLENEEDALSAEDVYLLVKEKSPEIGLATVYRTLELLTELKVVDKINFGDGVSRYDLRKEGAAHFHHHLVCMECGAVDEIEEDLLEDVEEIIERDWKFKIKDHRLTFHGICHRCNGKETE
B5: Bacillus subtilis Fur H97A (site 2 mutant) (natural protein, UniProt P54574 1-149, looked up)
chain: MENRIDRIKKQLHSSSYKLTPQREATVRVLLENEEDHLSAEDVYLLVKEKSPEIGLATVYRTLELLTELKVVDKINFGDGVSRYDLRKEGAAHFHHALVCMECGAVDEIEEDLLEDVEEIIERDWKFKIKDHRLTFHGICHRCNGKETE
B6: Bacillus subtilis Fur H132A (site 3 mutant) (natural protein, UniProt P54574 1-149, looked up)
chain: MENRIDRIKKQLHSSSYKLTPQREATVRVLLENEEDHLSAEDVYLLVKEKSPEIGLATVYRTLELLTELKVVDKINFGDGVSRYDLRKEGAAHFHHHLVCMECGAVDEIEEDLLEDVEEIIERDWKFKIKDARLTFHGICHRCNGKETE

Target: the molecule itself
Assay: SEC
For B1, the “stoichiometry N” value was 2. With B2 the “stoichiometry N” value was 2. B3 was tested, and the “stoichiometry N” value was 2. With B4 the “stoichiometry N” value was 2. In the case of B5, the “stoichiometry N” value is reported as 2. In the case of B6, the “stoichiometry N” value is reported as 2.
